B1: PYR1*^MANDI, pBD two-hybrid fusion [not stated] / HAB1*, pACT two-hybrid fusion [not stated] (parent)
chain 1: MPSELTPEERSELKNSIAEFHTYQLDPGSCSSLHAQRIHAPPELVWSIVRRFDKPQTHRHFIKSCSVEQNFEMRVGCTRDIIVISGLPANTSTERLDILDDERRVTGASIIGGEHRLTNYKGVTTVHRFEKENRIWTVVLESYVVDMPEGNSEDDTRIVVDDVVKLNLQKLATVAEAMARNSGDGSGSQVT
chain 2: MEEMTPAVAMTLSLAANTMCESSPVEITQLKNVTDAADLLSDSENQSFCNGGTECTMEDVSELEEVGEQDLLKTLSDTRSGSSNVFDEDDVLSVVEDNSAVISEGLLVVDAGSELSLSNTAMEIDNGRVLATAIIVGESSIEQVPTAEVLIAGVNQDTNTSEVVIRLPDENSNHLVKGRSVYELDCIPLWGTVSIQGNASEMEAAFAVSPHFLKLPIKMLMGDHEGMSPSLTHLTGHFFGVYDGHGGHKVADYCRDRLHFALAEEIERIKDELCKRNTGEGRQVQWDKVFTSCFLTVDGEIEGKIGRAVVGSSDKVLEAVADETVGSTAVVALVCSSHIVVSNCGDSRAVLFRGKEAMPLSVDHKPDREDEYARIENAGGKVIQWQGARVFGRLAMSRSIGDRYLKPYVIPEPEVTFMPRSREDECLILASDGLWDVMNNQEVCEIARRRILMWHKKNGAPPLAERGKGIDPACQAAADYLSMLALQKGSKDNISIIVIDLKAQAKFKTRT

Variants of: B1
Experiment: β-gal-based Y2H assay
Conditions: with HAB1*, ligand: azinphos-ethyl

Variant | screen value
chain 1 MPSELTPEERSELKNSIAEFHTYQLDPGSCSSLHAQRIHAPPELVWSIVRRFDKPQTHRHFIKSCSVEQNFEMRVGCTRDIIWISGLPANTSTERLDILDDERRVTGASYIGGEHSLTNYKGVTTVHRFEKENRIWTVVLESYVVDMPEGNSEDDTRIVVDDVYKLNLQKLATVAEAMARNSGDGSGSQVT [chain 1 V83W I110Y R116S V164Y] | 0.01 µM
chain 1 MPSELTPEERSELKNSIAEFHTYQLDPGSCSSLHAQRIHAPPELVWSIVRRFDKPQTHRHFIKSCSVEQNFEMRVGCTRDIIWISGLPANTSTERLDILDDERRVTGASIIGGEHSLTNYKGVTTVHRFEKENRIWTVVLESYVVDMPEGNSEDDTRIVVDDVVKLNLQKLATVAEAMARNSGDGSGSQVT [chain 1 V83W R116S] | 0.01 µM
chain 1 MPSELTPEERSELKNSIAEFHTYQLDPGSCSSLHAQRIHAPPELVWSIVRRFDKPQTHRHFIKSCSVEQNFEMRVGCTRDIIWISGLPANTSTERLDILDDERRVTGASYIGGEHSLTNYKGVTTVHRFEKENRIWTVVLESYVVDMPEGNSEDDTRIVVDDVVKLNLQKLATVAEAMARNSGDGSGSQVT [chain 1 V83W I110Y R116S] | 0.25 µM

Same assay, conditions: with HAB1*, ligand: chlorofenvinphos

Variant | screen value
chain 1 MPSELTPEERSELKNSIAEFHTYQLDPGSCSSLHAQRIHAPPELVWSIVRRFDKPQTHRHFIKSCSVEQNFEMRVGCTRDIIVISGLPANTSTERLDILDDERRVTGASIIGGEHRLTNYKQVTTVHRFEKENRIWTVVLESYVVDMPEGNSEDDTRIVVDDVVKLNLQKLATVAEAMARNSGDGSGSQVT [chain 1 G122Q] | 12.5 µM

Same assay, conditions: with HAB1*, ligand: disulfoton

Variant | screen value
chain 1 MPSELTPEERSELKNSIAEFHTYQLDPGSCSSLHAQRIHAPPELVWSIVRRFDKPQTHRHFIKSCSVEQNFEMRVGCTRDIIVISGLPANTSTERLDILDDERRVTGASIIGGEHRLTNYKGVTTVHRFEKENRIWTVVLESYVVDVPEGNSEDDTRIVVDDVVKLNLQKLATVAEAMARNSGDGSGSQVT [chain 1 M147V] | 100 µM

Same assay, conditions: with HAB1*, ligand: pirimiphos

Variant | screen value
chain 1 MPSELTPEERSELKNSIAEFHTYQLDPGSCSSLHAQRIHAPPELVWSIVRRFDKPQTHRHFIKSCSVEQNFEMRVGCTRDIIVISGLPANTMTERLDILDDERRVTGASIIGGEHRLTNYKGVTTVHRFEKENRIWTVVLESYVVDMPEGNSEDDTRIVVDDVVKLNLQKLATVAEAMARNSGDGSGSQVT [chain 1 S92M] | 25 µM

Same assay, conditions: with HAB1*, ligand: azinphos

Variant | screen value
chain 1 MPSELTPEERSELKNSIAEFHTYQLDPGSCSSLHAQRIHAPPELVWSIVRRFDKPQTHRHFIKSCSVEQNFEMRVGCTRDIIWISGLPANTSTERLDILDDERRVTGASIIGGEHSLTNYKGVTTVHRFEKENRIWTVVLESYVVDMPEGNSEDDTRIVVDDVVKLNLQKLATVAEAMARNSGDGSGSQVT [chain 1 V83W R116S] | 10 µM

Same assay, conditions: with HAB1*, ligand: diazinon

Variant | screen value
chain 1 MPSELTPEERSELKNSIAEFHTYQLDPGSCSSLHAQRIHAPPELVWSIVRRFDKPQTHRHFIKSCSVEQNFEMRVGCTRDIIVISGLPANTSTERLDILDDERRVTGVSIIGGEHRLTNYKGVTTVHRFEKENRIWTVVLESYVVDMPEGNSEDDTRIVVDDVVKLNLQKLATVAEAMARNSGDGSGSQVT [chain 1 A108V] | 100 µM

Same assay, conditions: with HAB1*, ligand: malathion

Variant | screen value
chain 1 MPSELTPEERSELKNSIAEFHTYQLDPGSCSSLHAQRIHAPPELVWSIVRRFDKPQTHRHFIKSCSVEQNFEMRVGCTRDIIAISGLPANTSTERLDILDDERRVTGASIIGGEHRLTNYKGVTTVHRFEKENRIWTVVLESYVVDMPEGNSEDDTRIVVDDVVKLNLQKLATVAEAMARNSGDGSGSQVT [chain 1 V83A] | 100 µM
